Among the data in publication PMC2700083, “A covalent peptide inhibitor of RGS4 identified in a focused one-bead, one compound library screen” (BMC Pharmacology, 2009) are Kd values, retold here.

What all share (assay): FCPIA (flow cytometry protein interaction assay, Luminex beads); Gαo affinities for RGS4Δ51N wild type and mutants on beads, with AMF
A general note: A flow cytometer gives signals particle by particle.

Assay [1] deals with MBP-RGS4Δ51N A148C in the -7C (UniProt P49799).
For assay [2], the target named is MBP-RGS4Δ51N A95C in the -7C (UniProt P49799).
The target in assay [3] is MBP-RGS4Δ51N with no Cys in the C-terminus (UniProt P49799).
The target of assay [4] is MBP-RGS4Δ51N A132C in the -7C (UniProt P49799).
For assay [5], the target named is MBP-RGS4Δ51N -7C mutant (all 7 cysteines removed) (UniProt P49799).
Assay [6] has as its target MBP-RGS4Δ51N with no Cys in the RGS domain (UniProt P49799).
For assay [7], the target named is MBP-RGS4Δ51N A71C in the -7C (UniProt P49799).

Chain of Gαo, Alexa Fluor 532-labeled (P59215 whole entry): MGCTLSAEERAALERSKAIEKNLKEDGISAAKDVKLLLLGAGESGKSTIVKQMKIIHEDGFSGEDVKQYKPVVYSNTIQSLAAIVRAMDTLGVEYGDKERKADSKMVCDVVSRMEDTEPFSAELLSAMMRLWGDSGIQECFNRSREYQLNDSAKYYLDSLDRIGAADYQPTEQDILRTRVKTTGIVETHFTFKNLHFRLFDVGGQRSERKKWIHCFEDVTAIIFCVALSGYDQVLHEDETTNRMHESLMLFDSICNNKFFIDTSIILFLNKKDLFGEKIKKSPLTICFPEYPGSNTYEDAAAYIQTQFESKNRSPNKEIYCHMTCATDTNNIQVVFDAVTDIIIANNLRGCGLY

The term Kd denotes a measure of binding affinity in units of concentration. As to “Gαo, Alexa Fluor 532-labeled (from UniProt P59215 1-354) (natural protein)”, the equilibrium dissociation constant (Kd) in assay [1] is 5.7 nM; in assay [2], 12 nM; in assay [3], 5 nM; in assay [4], 12.5 nM; in assay [5] it was 8.3 nM; in assay [6], 3.9 nM. Besides, the Kd in assay [7] is 9.2 nM.
